For this assay, the target named is T1, Bin2 (Bridging INtegrator-2) (human, UniProt Q9UBW5 1-565).
T1 construct: In vitro translated in the presence of 35S-methionine from the full-length cDNA
T1 sequence: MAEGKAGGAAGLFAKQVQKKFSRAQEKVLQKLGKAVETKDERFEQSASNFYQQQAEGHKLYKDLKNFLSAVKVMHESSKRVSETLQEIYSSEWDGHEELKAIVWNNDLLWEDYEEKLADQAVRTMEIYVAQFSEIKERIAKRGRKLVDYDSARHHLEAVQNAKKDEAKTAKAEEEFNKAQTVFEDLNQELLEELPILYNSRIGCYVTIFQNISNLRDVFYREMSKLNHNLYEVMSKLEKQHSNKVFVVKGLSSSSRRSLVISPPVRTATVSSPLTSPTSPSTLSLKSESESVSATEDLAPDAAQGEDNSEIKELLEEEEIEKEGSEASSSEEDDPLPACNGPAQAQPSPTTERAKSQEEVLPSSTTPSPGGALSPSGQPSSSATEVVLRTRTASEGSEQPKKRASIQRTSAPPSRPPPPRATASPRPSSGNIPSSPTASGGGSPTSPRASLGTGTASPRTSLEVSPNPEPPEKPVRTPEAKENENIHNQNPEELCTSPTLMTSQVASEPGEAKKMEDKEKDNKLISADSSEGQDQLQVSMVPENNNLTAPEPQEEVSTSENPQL
In words: co-immunoprecipitation of in vitro translated proteins, deletion mutant. The text has this:
Stable complexes have been reported in yeast between RVS161 and RVS167 and in brain between amphiphysin and brain-specific splice isoforms of Bin1 [Navarro et al., Biochim. Biophys. Acta, 1343: 187-192 (1997); Wigge et al., Mol. Biol. Cell 8: 2003-2015 (1997)]. Since Bin1 is expressed in hematopoietic cells, whether Bin2 and Bin1 could also form a stable biochemical complex was investigated. For coimmunoprecipitation experiments, Bin1 was in vitro translated in the presence or absence of Bin2 and complex formation was assessed by SDS-PAGE and fluorography after immunoprecipitation with the Bin1 monoclonal antibody 99D [Wechsler-Reya et al., Cancer Res. 57: 3258-3263 (1997)].
Other deletion mutants of Bin1 lacking the so-called Unique central region, the Myc-binding domain, or the SH3 domain, interacted with Bin2 with the same efficiency as wild-type Bin1 (data not shown). It was concluded that Bin1 and Bin2 formed a BAR domain-dependent complex in cells.

B1: Bin1 deletion mutant Δ1-122 (other)
chain: LLTMDTYLGQFPDIKSRIAKRGRKLVDYDSARHHYESLQTAKKKDEAKIAKAEEELIKAQKVFEEMNVDLQEELPSLWNSRVGFYVNTFQSIAGLEENFHKEMSKLNQNLNDVLVGLEKQHGSNTFTVKA
As to B1, the binding result was “no binding”.
